According to article PMC2529400:

Biological target: KSHV viral G protein-coupled receptor, Flag-tagged (vGPCR-Flag) (Kaposi's sarcoma-associated herpesvirus (human herpesvirus 8)) (UniProt Q98146)
Sequence of UniProt Q98146 (Q98146 whole entry): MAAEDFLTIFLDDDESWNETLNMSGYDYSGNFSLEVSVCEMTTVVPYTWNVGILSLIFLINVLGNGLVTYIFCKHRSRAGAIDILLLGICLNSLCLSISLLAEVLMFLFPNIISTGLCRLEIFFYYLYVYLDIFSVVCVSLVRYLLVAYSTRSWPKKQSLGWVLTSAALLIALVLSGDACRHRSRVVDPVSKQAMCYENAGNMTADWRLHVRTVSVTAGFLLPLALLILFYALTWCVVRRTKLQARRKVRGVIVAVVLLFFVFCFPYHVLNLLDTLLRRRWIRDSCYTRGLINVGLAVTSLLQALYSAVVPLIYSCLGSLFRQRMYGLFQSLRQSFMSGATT

KSHV K7 small membrane protein, V5-tagged (K7-V5), wild type (natural protein)
AP-1 luciferase reporter activation by vGPCR in 293T cells with K7 co-expressed (about 4.5 fold without K7): 2 fold
NF-AT luciferase reporter activation by vGPCR in 293T cells with K7 co-expressed (about 25 fold without K7): 8 fold
NF-κB luciferase reporter activation by vGPCR in 293T cells with K7 co-expressed (about 4 fold without K7): 2 fold
